Assay results as given in publication PMC8148087.
Where two headings read alike, the source gives them in different places.

Legend:
[1] = target: FAM-HLA (model peptide HLA attached to a FAM fluorophore); assay: fluorescence polarisation
[2] = target: FAM-HLA (model peptide HLA attached to a FAM fluorophore); assay: fluorescence polarisation; remark: listed apart in the source

| Substance | Kd [1] [µM] | Kd [2] [µM] |
| --- | --- | --- |
| human heat shock cognate protein 70 (Hsc70), wild type (from UniProt P11142 1-646) (natural protein) | 26 | 5 |
| E. coli DnaK, wild type (from UniProt P0A6Y8 1-638) (natural protein) | > 30 | 9 |
| E. coli DnaK Y145A (from UniProt P0A6Y8 1-638) (natural protein) | > 30 | 9 |

Continued by falling Kd [1], values first:

| Kd [1] [µM] | Kd [2] [µM] | Substance |
| --- | --- | --- |
| 4 | – | human Hsc70 Y149A (from UniProt P11142 1-646) (natural protein) |
| 4 | 8 | E. coli DnaK Y145W (from UniProt P0A6Y8 1-638) (natural protein) |
